Assay results: paper doi:10.1101/2024.04.06.588386, “Structural plasticity of 2A proteins in the Parechovirus family” (bioRxiv, 2024)

Target: the molecule itself
Assay: SEC-SAXS; Superdex S75 Increase 5/150; 20 mM Hepes-NaOH pH 7.4, 150 mM NaCl, 4 mM TCEP, 1% v/v glycerol; molecular weight estimates and fit of crystallographic dimers (CRYSOL, NMA)

B1: HPeV1-2A^FL (full-length 2A^H/NC protein of human parechovirus 1) (natural protein)
chain: SPYGQQPQNRMMKLAYLDRGFYKHYGIIVGDHVYQLDSDDIFKTALTGKAKFTKTKLTSDWVIEEECELDYFRIKYLESAVDSEHIFSVDKNCETIAKDIFGTHTLSQHQAIGLVGTILLTAGLMSTIKTPVNAVTIKEFFNHAIDGDEQ
notes: also called full-length HPeV1-2A
stoichiometry N: 2
